The series deals with the molecule itself. The experiment in a line: stopped-flow kinetics with light scattering detection, dilution from 10 to 1 mg/ml at 4 C, self-association. The source says: High molecular weight forms are known to cause increased intensity of light scattering compared to monomer. Dissociation of the MabA present in the HPSEC shoulder, (apparent molecular weight of 213 kDa) would, therefore, be expected to result in a decrease in light scattering.

B1: MabA (antibody, human IgG2, V domains shown)
VH: QVQLVESGGGLVKPGGSLRLSCAASGFTFSDYYMNWIRQAPGKGLEWVSYISSSGSIIYYADSVKGRFTISRDNAKNSLYLQMNSLRAEDTAVYYCAREGRIAARGMDVWGQGTTVTVSS
VL: DIQMTQSPSSLSASVGDRVTITCRPSQSFSRYINWYQQKPGKAPKLLIYAASSLVGGVPSRFSGSGSGTDFTLTISSLQPEDFATYYCQQTYSNPPITFGQGTRLEIK
notes: Full-length human IgG2; also called anti-PDGFR-alpha antibody; human IgG2 anti-PDGFR-alpha antibody
Take B1: the “apparent half-life of dissociation of the self-associated species” value was found to be 14 s.

Source of the values: patent US20120009199A1 (AstraZeneca / MedImmune, published 2012).
